Source: PMC11586414

Target: AMPylated HEPN^Lpg (Legionella pneumophila Philadelphia 1) (UniProt Q5ZRG2)
Test: crystal structure

## AMPylated HEPN^Lpg (from UniProt Q5ZRG2 1-139) (natural protein)
  stoichiometry N: 4
